Experimental data published in the RNAGym collection of RNA variant scans (doi:10.1073/pnas.2313332121).

B1: TPR t1 (parent)
chain: GACCAAUCUGCCCUCAGAGCUCGAGAACAUCUUCGGAUGCAGAGGAGGCAGGCUUCGGUGGCGCGAUAGCGCCAACGUCCUCAACCUCCAAUGCAUCCCACCACAUGAUGAUGCCUGAAGAGCCUUGGUUUUUUG

Variants of: B1
Test: polymerase ribozyme fitness, log enrichment relative to wild type (log ratio); higher = more active; in vitro selection for triplet polymerase activity
In short: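 Mutant libraries for each subunit of a heterodimeric triplet polymerase ribozyme were made by PCR and then transcribed. Each library underwent one round of in vitro selection in triplicate: annealing with a biotinylated primer, the partner subunit and triplets, frozen incubation at −7 °C, gel excision of extended constructs, streptavidin-bead capture and RT-PCR. Input and output libraries were Illumina-sequenced, and only genotypes with ≥10 input reads and ≥1 read per output were kept. Fitness is the logarithm, base 2, of genotype enrichment over wild-type enrichment, computed from inverse-variance-weighted replicate averages.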

Point of comparison: C73U C86U U109C G117A G135U, “polymerase ribozyme fitness (log ratio)” value -6.47. Against it:
- G77A A91G — higher, -1.01
- C72G U96C — higher, -1.25
- C72G U96A — higher, -2.18
- C72G U132A — higher, -0.151
- A75U U81A G113C U130C — higher, -3.89
- C73A A108G U116A C123U — higher, -5.63
- C73A G113A U131A — higher, -1.4
- C76A C89A — higher, -3.18
- A74G C80U — higher, -1.69
- C72G C94G G113A G122U — higher, -3.41
- C73U A91G C104U U112A G113U — higher, -0.254
- C76G A84U U133G — higher, -0.998
- A75G C94G — higher, -1.19
- U78C G113A A118G U134G G135U — higher, -1.82
- G77C C89U G128C — higher, -3.81
- A74C U133A — higher, -0.0752
- C72A G93A — higher, -0.667
- C72A U112C — higher, 1.48
- C73U U133A — higher, 0.4
- C72A C98A — higher, -4.32
- G77C C86G — higher, -1.47
- G77U C94U C102A C115A — higher, -2.01
- C72G G110C — higher, -2.42
- C72U U92C — higher, -0.581
- C72U U92A — higher, -3.15
- C73U C114U C123A — higher, -3.41
- C73G G120C G128U — higher, -1.34
- C73U U78C U96A — higher, -1.03
- C72U C79G — higher, -1.97
- C72U A84U C101U — higher, -0.839
- C72A G107U — higher, -3.81
- C72G G128C — higher, -2.25
- C73U A84U — higher, -0.363
- C72U G77C C114U — higher, -2.28
- C73G G77U C114U — higher, -3.31
- G77A C80U C98A C123G — higher, -4.14
- U78C C102U — higher, -2.14
- C73U C82A C124G — higher, 1.47
- U78A G117A G128C — higher, -5.04
- C72U U96G — higher, -1.42
- C72A U112C G127C — higher, 0.93
- C73U U81G C82G C123A — higher, 0.626
- G77C U125A — higher, -0.685
- A74G A83U U106C — higher, -0.743
- C73G U133A — higher, -1.27
- U78C C80U C89U G117C A119G — higher, -1.72
- C76U C104A — higher, -1.92
- U78C A84C — higher, -0.194
- C73U G110U — higher, -1.17
- C73U G110C — higher, -3.31
- C76U C82U C102U G117A — higher, -4.4
- G77A C85A — higher, -2.93
- G77C G117U — higher, -2.55
- C72A G117C — higher, -4.09
- C72A G117U — higher, -2.32
- G77A C94G — higher, -1.19
- C72U G120C C123G — higher, 0.164
- C73G C101U U112C G117C — higher, -2.53
- C72A C123G — higher, 1.56
- C73G C124A U130G — higher, 1.1
- C73U C79G A84G U96C — higher, -2.54
- G77U C101G — higher, -1.96
- A74U U87A C102U C104A — higher, -2.53
- A74G U106A U125A — higher, -0.353
- A74C C82U A95C — higher, -0.152
- C72U A118U U130C — higher, 0.16
- U78C A83C C94U G110A A118U G120U U132C — higher, -2.85
- C72A G107A C124G — higher, -5.06
- C73U C124G — higher, 0.939
- C72U A103C — higher, -4.5
- C76G C99A U112A — higher, -4.02
- C76A G113C — higher, -3.53
- C73A C101U G122A U131C — higher, -1.18
- G77C C85A — higher, -1.93
- C76A G110A C115A — higher, -2.95
- A74U U78G U131G — higher, -1.29
- C73U A100U — higher, -0.959
- C73A C79G — higher, -2.94
- A74C U106A G120U C124G — higher, 1.17
- C72U C88G A90C A91G — higher, -4.6
- C73G C98A — higher, -6.22
- C73A C88U C114G A118U — higher, -3.36
- G77C U96A — higher, -1.58
- C73A G120U A121C — higher, 0.179
- C72G U92G — higher, -3.48
- C72G U92A — higher, -3.94
- C76U G127A — higher, -1.52
- C72U A84G G117C — higher, -4.48
- C72A U96A — higher, -1.74
- A74U G113A U129A — higher, -1.94
- C72U A91C G127A — higher, -2.46
- C72U G117A U133A — higher, -1.1
- G77A A95G G120A — higher, 0.0766
- C72U C79G G113C A118U — higher, -5.9
- C73A G107C — higher, -4.16
- C72U C94A U125A — higher, -1.59
- C73A G113A — higher, -0.815
- C72A U92A — higher, -2.67
- C73A A103G G110A — within 0.2 log units, -6.42
- U78A C97A — higher, -4.8
- C72U A74U U81C — higher, -0.388
- C76U C88A — higher, -1.29
- C72U U78C U106C G117A A118U U125G — higher, -5.09
- G77A U81A G128A — higher, -2.44
- C72G A119U C124G — higher, 1.57
- U78A G113C — higher, -2.57
- C72G C123G — higher, 1.26
- C73U A91U U96A U112A G120U — higher, -3.6
- C76A G120U — higher, -0.741
- C73U C114G — higher, -1.76
- C73U C85U U116G — higher, -3.31
- C72G C73U G128U — higher, -3.92
- C73G A84U — higher, -1.52
- C73A C101U G110U — higher, -1.75
- G77A U131A — higher, 0.113
- C76U G135U — higher, -1.08
- C72U G107C U109A U130A — higher, -5.31
- C72G G122A — higher, -1
- A74U C88G A118U — higher, -1.31
- C73G U81G — higher, -3.66
- C73A C94G — higher, -0.66
- C73A C94A — higher, -0.492
- C72U U81G U87A C102A — lower, -7.12
- C72U C76U — higher, 0.954
- C72U G93U C123G — higher, -1.42
- C72G U109A C123A — higher, -5.46
- C72U A84U C101A C115U G127A G128C — lower, -6.94
- C73U C97A U106C — higher, -5.37
- U78A A95G — higher, -0.764
- C72A C114A G122A — higher, -2.11
- C72U U133A — higher, -0.682
- C72U U116A — higher, -3.04
- G77U U78C U87G A121U U130G — higher, 2.02
- U78A C88G C98U G135A — higher, -2.63
- C73U A119U U126C — higher, -0.929
- A74G U112A U126A — higher, 0.303
- C73A C97U — higher, -0.11
- C72U U106C — higher, -0.313
- C76G A90C — higher, -0.998
- C73U U92C — higher, -1.83
- C72G U81A U130A — higher, -1.44
- G77C U92C G122A — higher, -2.81
- A75U C76G C88G C89U A90G — higher, -2.47
- C73G C102U A119G — higher, -1.29
- C76G C102U C104A — higher, -1.03
- A74U G110A — higher, -1.3
- A75U C76U — higher, -1.57
- G77A A84U U112G — higher, -2.45
- C72G A90U — higher, -1.11
- A74G G120U G135C — higher, 0.597
- U78C C82A C85U G93A — higher, -1.53
- C72U C97U — higher, -1.45
- C73U A103C — higher, -3.82
- C76G G77U — higher, 0.0405
- A74C C79A U131G — higher, -0.848
- C72U U78A — higher, -1.19
- C72U G77A A111U G113A — higher, -5.99
- C72A U92A A119G G127C — higher, -1.04
- C72A G93A C98U U125G — higher, -1.8
- C72U G110C — higher, -4.19
- G77C U129A — higher, -1.42
- C72U C89A C104U U125G — higher, -1.18
- C72U C73U — higher, -1.09
- C73U G110U G120A — higher, -2.15
- C73A C114G — higher, -2.17
- G77C A83C C85U U109C C114G — lower, -6.69
